What was measured:
[1] = target: α-synuclein (α-syn) (UniProt P37840); assay: ThT fluorescence of ONE-induced self-aggregation; conditions: reference: α-syn not treated with PLK3; sites S129
[2] = target: α-synuclein (α-syn) (UniProt P37840); assay: ThT fluorescence of agitation-induced self-aggregation; conditions: reference: α-syn not treated with PLK3; sites S129

- fold change [1]: stronger; reference 1
- fold change [2]: stronger; reference 1
Substance: α-synuclein (α-syn) (from UniProt P37840) PLK3-phosphorylated α-syn (p-α-syn)
